From patent EP2133098A1 (Maxygen Holdings Ltd, dated 2009)
Where a chain is given by its changes, count along the chain named. Names and notes keep the numbering of the source.

T1: human G-CSF receptor (human, UniProt Q99062 25-836)
T1 sequence (looked up): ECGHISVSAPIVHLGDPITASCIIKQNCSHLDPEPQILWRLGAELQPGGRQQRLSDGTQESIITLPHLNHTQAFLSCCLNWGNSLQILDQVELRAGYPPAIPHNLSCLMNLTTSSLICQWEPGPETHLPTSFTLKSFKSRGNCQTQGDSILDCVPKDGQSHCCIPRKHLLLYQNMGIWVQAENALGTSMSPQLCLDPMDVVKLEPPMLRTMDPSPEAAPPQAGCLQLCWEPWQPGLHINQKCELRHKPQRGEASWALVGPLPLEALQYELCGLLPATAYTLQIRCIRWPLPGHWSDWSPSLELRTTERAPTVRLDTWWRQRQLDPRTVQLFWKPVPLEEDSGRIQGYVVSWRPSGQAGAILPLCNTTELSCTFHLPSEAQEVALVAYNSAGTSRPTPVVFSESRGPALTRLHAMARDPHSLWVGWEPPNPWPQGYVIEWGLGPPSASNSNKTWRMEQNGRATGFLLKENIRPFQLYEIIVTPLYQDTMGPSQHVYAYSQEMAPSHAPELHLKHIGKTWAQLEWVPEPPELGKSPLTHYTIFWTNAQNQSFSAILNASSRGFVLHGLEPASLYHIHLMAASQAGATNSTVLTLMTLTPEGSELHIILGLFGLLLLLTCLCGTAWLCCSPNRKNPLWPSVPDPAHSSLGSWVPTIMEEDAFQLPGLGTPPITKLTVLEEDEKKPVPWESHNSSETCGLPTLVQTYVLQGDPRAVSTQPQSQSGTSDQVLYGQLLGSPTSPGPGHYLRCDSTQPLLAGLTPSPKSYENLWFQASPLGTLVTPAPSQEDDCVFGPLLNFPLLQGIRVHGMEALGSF

B1: non-conjugated hG-CSF (Neupogen) (ligand)
chain: TPLGPASSLPQSFLLKCLEQVRKIQGDGAALQEKLCATYKLCHPEELVLLGHSLGIPWAPLSSCPSQALQLAGCLSQLHSGLFLYQGLLQALEGISPELGPTLDTLQLDVADFATTIWQQMEELGMAPALQPTQGAMPAFASAFQRRAGGVLVASHLQSFLEVSYRVLRHLAQP
B2: SPA-PEG 5000-conjugated hG-CSF K16R K34R K40R (ligand)
chain: B1 chain with K16R, K34R, K40R
modifications: SPA-PEG 5000 on the available PEGylation sites
B3: SPA-PEG 20000-conjugated hG-CSF K16R K34R K40R (ligand)
chain: B1 chain with K16R, K34R, K40R
modifications: SPA-PEG 20000
B4: SPA-PEG 12000-conjugated hG-CSF K16R K34R K40R (ligand)
chain: B1 chain with K16R, K34R, K40R
modifications: SPA-PEG 12000; mainly 2 and 3 PEG groups attached
B5: SPA-PEG 5000-conjugated hG-CSF K16R K34R K40R Q70K Q120K T133K (ligand)
chain: B1 chain with K16R, K34R, K40R, Q70K, Q120K, T133K
modifications: SPA-PEG 5000 on the available PEGylation sites
B6: SPA-PEG 5000-conjugated hG-CSF K16R K34R K40R Q70K Q90K Q120K (ligand)
chain: B1 chain with K16R, K34R, K40R, Q70K, Q90K, Q120K
modifications: SPA-PEG 5000 on the available PEGylation sites
B7: SPA-PEG 5000-conjugated hG-CSF K16R K34R K40R Q70K Q120K (ligand)
chain: B1 chain with K16R, K34R, K40R, Q70K, Q120K
modifications: SPA-PEG 5000 on the available PEGylation sites
B8: SPA-PEG 5000-conjugated hG-CSF K16R K34R K40R Q90K Q120K T133K (ligand)
chain: B1 chain with K16R, K34R, K40R, Q90K, Q120K, T133K
modifications: SPA-PEG 5000 on the available PEGylation sites
B9: SPA-PEG 5000-conjugated hG-CSF K16R K34R K40R Q70K Q90K T105K (ligand)
chain: B1 chain with K16R, K34R, K40R, Q70K, Q90K, T105K
modifications: SPA-PEG 5000 on the available PEGylation sites

Target: T1, human G-CSF receptor
Assay: cell-based or functional assay

How did the “EC50, BaF3/hGCSF-R/pfos-lux luciferase assay” value turn out when B1 was run?
The value was 30 pM.

With B2 as the binder, how does the “in vitro EC50 (% of non-conjugated hG-CSF (Neupogen))” value read?
The value was 35 % of non-conjugated hG-CSF (Neupogen).

How did the “in vitro EC50 (% of non-conjugated hG-CSF (Neupogen))” value turn out when B3 was run?
Its value is 1 % of non-conjugated hG-CSF (Neupogen).

Which “in vitro EC50 (% of non-conjugated hG-CSF (Neupogen))” value does the source give for B4 here?
The value was 10 % of non-conjugated hG-CSF (Neupogen).

Target: T1, human G-CSF receptor
Assay: cell-based or functional assay
Remark: another data set of the same source

How did the “EC50 (% of hG-CSF) conjugated to SPA-PEG 5000” value (“EC50 (% of hG-CSF) conjugated” for short) turn out when B5 was run?
Its value is 5 % of hG-CSF.

With B6 as the binder, how does the “EC50 (% of hG-CSF) conjugated” value read?
Its value is 10 % of hG-CSF.

For B7, which “EC50 (% of hG-CSF) conjugated” value is on record?
Its value is 15 % of hG-CSF.

Which “EC50 (% of hG-CSF) conjugated” value does the source give for B8 here?
The value was 5 % of hG-CSF.

Which “EC50 (% of hG-CSF) conjugated” value does the source give for B9 here?
The value was 2 % of hG-CSF.
